Test system: RSC complex (17 subunits, 1.197 MDa);histone octamer (recombinant) (yeast;Xenopus laevis)
Test: AFM
Conditions: RSC:mononucleosome 1:3, AFM: 1 nM RSC with 21 nM 1 kbp DNA without ATP, or RSC:mononucleosome 1:3 for 30 min with or without 4 mM ATP or ATPgS, buffer, salt, pH and temperature not in …

601 mononucleosome with 236 and 252 bp arms (240/240, 635 bp)
binding signal (% of substrate RSC-bound) (4 mM ATP, 50% of RSC complexes nucleosome-bound): 32 | binding signal (% of substrate RSC-bound) (4 mM ATPgS, 76% of RSC complexes on bare DNA arms): 52 | binding signal (% of substrate RSC-bound) (no ATP, 72% of RSC complexes on bare DNA arms): 25
